Where no end group is shown, it is not given here. [ ]: non-standard residue; d: D form. NMeE = CN[C@@H](CCC(=O)O)C(=O)O
Biological target: clotted plasma proteins
Assay: binding to plasma clots; method not described, data not shown

Row | Kd | Binder
1 | 6 µM | CREKA [CREKA peptide (cys-arg-glu-lys-ala)]
2 | 2.5 µM | CR[NMeE]KA [CR(NMe)EKA]
